{"source": "patent US20250289885A1", "about": "(TRUSTEES OF BOSTON UNIVERSITY, published 2025)", "binders": {"B1": {"name": "'A-2' variant of the anti-NRR1 scFv (mask domain) (scFv)", "scFv": "EVQLVESGGGLVQPGGSLRLSCAASGFTFSSYWIHWVRQAPGKGLEWVARINPPNRSNQYADSVKGRFTISADTSKNTAYLQMNSLRAEDTAVYYCARGSGFRWVMDYWGQGTLVTVSSGGSSRSSSSGGGGSGGGGDIQMTQSPSSLSASVGDRVTITCRASQDVSTAVAWYQQKPGKAPKLLIYSASFLYSGVPSRFSGSGSGTDFTLTISSLQPEDFATYYCQQFYTTPSTFGQGTKVEIK", "notes": "Tested as the N-terminal mask domain of receptors HA-Halo-antiNRR-TEVs-NRR-GAL4VP64, that is on the same polypeptide as the NRR until TEVp cleaves the linker; carries HA tag and HaloTag at its N-terminus; also called A2 scFv"}, "B2": {"name": "TEV-cleavable Anti-Notch1 probody, Genentech scFv (HaloTag-anti-NRR1-scFv-TEVcs-msNRR1^V1677D), intact (uncleaved) (other)", "chain": "YPYDVPDYATGMAEIGTGFPFDPHYVEVLGERMHYVDVGPRDGTPVLFLHGNPTSSYVWRNIIPHVAPTHRCIAPDLIGMGKSDKPDLGYFFDDHVRFMDAFIEALGLEEVVLVIHDWGSALGFHWAKRNPERVKGIAFMEFIRPIPTWDEWPEFARETFQAFRTTDVGRKLIIDQNVFIEGTLPMGVVRPLTEVEMDHYREPFLNPVDREPLWRFPNELPIAGEPANIVALVEEYMDWLHQSPVPKLLFWGTPGVLIPPAEAARLAKSLPNCKAVDIGPGLNLLQEDNPDLIGSEIARWLSTLEISGGGGGSTGDGGGGEVQLVESGGGLVQPGGSLRLSCAASGFTFSSYWIHWVRQAPGKGLEWVARINPPNRSNQYADSVKGRFTISADTSKNTAYLQMNSLRAEDTAVYYCARGSGFRWVMDYWGQGTLVTVSSGGSSRSSSSGGGGSGGGGDIQMTQSPSSLSASVGDRVTITCRASQDVSTAVAWYQQKPGKAPKLLIYSASFLYSGVPSRFSGSGSGTDFTLTISSLQPEDFATYYCQQFYTTPSTFGQGTKVEIKGSNSGGTLEGGGSGENLYFQGGGGGRTGGGSEQKLISEEDLGGGSILDYSFTGGAGRDIPPPQIEEACELPECQVDAGNKVCNLQCNNHACGWDGGDCSLNFNDPWKNCTQSLQCWKYFSDGHCDSQCNSAGCLFDGFDCQLTEGQCNPLYDQYCKDHFSDGHCDQGCNSAECEWDGLDCAEHVPERLAAGTLVLVVLLPPDQLRNNSFHFLRELSHVLHTNVVFKRDAQGQQMIFPYYGHEEELRKHPIKRSTVGWATSSLLPGTSGGRQRRELDPMDIRGSIDYLEIDNRQCVQSSSQCFQSATDVAAFLGALASLGSLNIPYKIEAVKSEPVEGPV", "modifications": "HaloTag domain conjugated with a fluorescent HaloTag-ligand dye in the binding tests (JFX650; Halo-JF635i in paragraph 360)", "notes": "Secreted protein; also called Probody^V1667D; Probody^V1667D-JF650"}, "B3": {"name": "TEV-cleavable Anti-Notch1 probody, Genentech scFv, Wild-type NRR (HaloTag-anti-NRR1-scFv-TEVcs-msNRR1^WT), intact (uncleaved) (other)", "chain": "B2 chain with D849V", "modifications": "HaloTag labelled with JFX650 dye", "notes": "also called Probody with a mask based on the wild-type Notch1-NRR"}, "B4": {"name": "TEV-cleavable Anti-Notch1 probody, Genentech scFv, S1 loop deletion (HaloTag-anti-NRR1-scFv-TEVcs-msNRR1^V1677D-deltaS1), intact (uncleaved) (other)", "chain": "YPYDVPDYATGMAEIGTGFPFDPHYVEVLGERMHYVDVGPRDGTPVLFLHGNPTSSYVWRNIIPHVAPTHRCIAPDLIGMGKSDKPDLGYFFDDHVRFMDAFIEALGLEEVVLVIHDWGSALGFHWAKRNPERVKGIAFMEFIRPIPTWDEWPEFARETFQAFRTTDVGRKLIIDQNVFIEGTLPMGVVRPLTEVEMDHYREPFLNPVDREPLWRFPNELPIAGEPANIVALVEEYMDWLHQSPVPKLLFWGTPGVLIPPAEAARLAKSLPNCKAVDIGPGLNLLQEDNPDLIGSEIARWLSTLEISGGGGGSTGDGGGGEVQLVESGGGLVQPGGSLRLSCAASGFTFSSYWIHWVRQAPGKGLEWVARINPPNRSNQYADSVKGRFTISADTSKNTAYLQMNSLRAEDTAVYYCARGSGFRWVMDYWGQGTLVTVSSGGSSRSSSSGGGGSGGGGDIQMTQSPSSLSASVGDRVTITCRASQDVSTAVAWYQQKPGKAPKLLIYSASFLYSGVPSRFSGSGSGTDFTLTISSLQPEDFATYYCQQFYTTPSTFGQGTKVEIKGSNSGGTLEGGGSGENLYFQGGGGGRTGGGSEQKLISEEDLGGGSILDYSFTGGAGRDIPPPQIEEACELPECQVDAGNKVCNLQCNNHACGWDGGDCSLNFNDPWKNCTQSLQCWKYFSDGHCDSQCNSAGCLFDGFDCQLTEGQCNPLYDQYCKDHFSDGHCDQGCNSAECEWDGLDCAEHVPERLAAGTLVLVVLLPPDQLRNNSFHFLRELSHVLHTNVVFKRDAQGQQMIFPYYGMDIRGSIDYLEIDNRQCVQSSSQCFQSATDVAAFLGALASLGSLNIPYKIEAVKSEPVEGPV", "modifications": "HaloTag domain conjugated with JFX650 dye", "notes": "also called Probody^V1667D(ΔS1); Probody^V1667D(ΔS1)-JF650"}}, "key": {"[1]": {"target": "T1, mouse Notch1 NRR, non-mutated (WT), in the control receptor HA-Halo-antiNRR-TEVs-NRR-GAL4VP64 (mouse, UniProt Q01705 1427-1752)", "T1 construct": "Domain of a synthetic receptor on cells; also called non-mutated NRR control; Mouse NRR1-WT", "T1 sequence (Q01705 1427-1752 limits assumed, change not shown)": "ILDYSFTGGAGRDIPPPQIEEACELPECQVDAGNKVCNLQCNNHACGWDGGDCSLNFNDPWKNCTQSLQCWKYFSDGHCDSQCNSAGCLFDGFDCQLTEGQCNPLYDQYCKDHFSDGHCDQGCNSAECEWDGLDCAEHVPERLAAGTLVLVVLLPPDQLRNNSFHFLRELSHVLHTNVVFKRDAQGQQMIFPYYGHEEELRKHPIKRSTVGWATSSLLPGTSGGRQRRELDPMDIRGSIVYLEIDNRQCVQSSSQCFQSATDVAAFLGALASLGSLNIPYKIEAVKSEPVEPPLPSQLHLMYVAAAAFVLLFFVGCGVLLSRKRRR", "assay": "anti-HA immunoblot (aHA-HRP) of cell lysate and conditioned media of HEK293-FT cells expressing the receptor, after TEVp cleavage of the scFv-NRR linker", "procedure": "(§1) HEK293-FT cells were transfected with pcDNA3-based plasmids encoding the indicated receptor with TEVs substrate linker and N-terminal HA tag. (FIG. 11A) cell lysates and conditioned anti-HA immunoblots after 3 hours of TEVp incubation, overwise indicated. FL; full-length receptor, NTF; N-terminal fragment, Ab; ‘A-2’ variant of the anti-NRR1 scFv. (FIG. 11B) Inventors further evaluated the efficiency of TEVs cleavage by comparing an anti-HA blot (which stains all copies of the receptor, including those in the secretory pathway) to a streptavidin blot probing for surface-bound receptor copies by labelling receptors with a cell-impermeant halo-ligand-biotin conjugate. […] Immunoblot of cell lysates and conditioned media of HEK293-FT expressing the ‘V1677D’ design by transient transfection. Cells were stained with cell-impermeant halo-biotin prior to TEVp addition. Cell lysates and conditioned media were collected for immunoblot analysis after 3 hours. Colored triangle markers denote FL (top arrow of top blot), NTF (middle arrow of top blot; top arrow of bottom blot) and cleaved NTF (bottom arrows of both blots) species.\n(§2) Inventors then evaluated whether these receptors have different TEVs cleavage efficiencies and anti-NRR1 scFv dissociation kinetics. They immunoblotted for the anti-NRR1 scFv mask in cell lysates and conditioned media in cells expressing the non-mutated WT, V1677D, and A1702P NRR receptors in the absence or addition of exogenous TEVp. Inventors than chose to analyze the V1677D and A1702P mutations since they were the designs with the highest and lowest protease-induced reporter activation, respectively."}, "[2]": {"target": "T2, mouse Notch1 NRR with V1677D, in the ProNotch receptor (mouse, UniProt Q01705 1427-1752)", "T2 construct": "Domain of a synthetic receptor on cells; also called NRR(V1677D); Mouse NRR1-V1677D", "T2 sequence (Q01705 1427-1752 V1666D limits assumed)": "as the sequence (Q01705 1427-1752 limits assumed, change not shown) above, with V240D counted along it", "assay": "anti-HA immunoblot (aHA-HRP) of cell lysate and conditioned media of HEK293-FT cells expressing the receptor, after TEVp cleavage of the scFv-NRR linker", "procedure": "as §1, §2"}, "[3]": {"target": "T3, mouse Notch1 NRR with the T-ALL mutation A1702P, in the receptor design (mouse, UniProt Q01705 1427-1752)", "T3 construct": "also called A1691P in mouse Notch1", "T3 sequence (Q01705 1427-1752 A1691P limits assumed)": "as the sequence (Q01705 1427-1752 limits assumed, change not shown) above, with A265P counted along it", "assay": "anti-HA immunoblot (aHA-HRP) of cell lysate and conditioned media of HEK293-FT cells expressing the receptor, after TEVp cleavage of the scFv-NRR linker", "procedure": "as §1, §2"}, "[4]": {"target": "T4, hNotch1 receptor, stably integrated, on clonal CHO-K1 cells (human, UniProt P46531 19-2555)", "T4 construct": "whole, on cells; also called human Notch1", "assay": "fluorescence microscopy of cell-surface bound probody on clonal CHO-K1 cells expressing hNotch1, 40-minute incubation, wash, fixation", "excerpt": "FIGS. 33A-33C present schematics and data showing activation of a probody/masked antibody with specificity against human Notch1 (hNotch) NRR. (FIG. 33A) Schematic depicting the TEV protease (TEVp)-mediated activation and binding of the anti-hNotch1 probody. The probody sequence used contains the V1677D mutant NRR as a “mask” and is linked to an anti-hNotch1 scFv via a linker containing a TEVp substrate sequence. Upon cleavage by TEVp, the NRR mask dissociates from the scFv and is thus able to bind its corresponding antigen. A fluorophore is linked to the probody sequence to permit visualization. (FIGS. 33B and 33C) Tests of scFv binding to hNotch1. Clonal CHO-K1 cells expressing a stably integrated hNotch1 receptor were incubated with the body alone (FIG. 33B) or with the pro body treated with TEVp (FIG. 33C). Following a 40-minute incubation, probody-containing media was removed, and cells were washed with fresh media prior to fixation and DNA staining with Hoechst-JF526 (inset). Cells were imaged to detect cell-surface bound (activated) probody and Hoechst-JF526. Binding to hNotch1 was observed only with the TEVp-cleaved probody sequence. The antibody sequence used in the body can inhibit signaling by wild-type and various disease-associated hNotch1 mutations (Wu et al. Nature 464: 1052-1057 (2010))."}, "[5]": {"target": "T5, Notch1-Gal4 chimeric receptor (hN1 ECD-Gal4 ICD) on CHO-K1 cells (human, UniProt P46531 19-1735)", "T5 construct": "extracellular domain; H2B-mTurq2 marker; also called Notch1-Ga4; NOTCH1 ECD-GAL4 ICD; not shown: transmembrane segment and Gal4 intracellular domain", "T5 sequence (P46531 19-1735, stated change not applied)": "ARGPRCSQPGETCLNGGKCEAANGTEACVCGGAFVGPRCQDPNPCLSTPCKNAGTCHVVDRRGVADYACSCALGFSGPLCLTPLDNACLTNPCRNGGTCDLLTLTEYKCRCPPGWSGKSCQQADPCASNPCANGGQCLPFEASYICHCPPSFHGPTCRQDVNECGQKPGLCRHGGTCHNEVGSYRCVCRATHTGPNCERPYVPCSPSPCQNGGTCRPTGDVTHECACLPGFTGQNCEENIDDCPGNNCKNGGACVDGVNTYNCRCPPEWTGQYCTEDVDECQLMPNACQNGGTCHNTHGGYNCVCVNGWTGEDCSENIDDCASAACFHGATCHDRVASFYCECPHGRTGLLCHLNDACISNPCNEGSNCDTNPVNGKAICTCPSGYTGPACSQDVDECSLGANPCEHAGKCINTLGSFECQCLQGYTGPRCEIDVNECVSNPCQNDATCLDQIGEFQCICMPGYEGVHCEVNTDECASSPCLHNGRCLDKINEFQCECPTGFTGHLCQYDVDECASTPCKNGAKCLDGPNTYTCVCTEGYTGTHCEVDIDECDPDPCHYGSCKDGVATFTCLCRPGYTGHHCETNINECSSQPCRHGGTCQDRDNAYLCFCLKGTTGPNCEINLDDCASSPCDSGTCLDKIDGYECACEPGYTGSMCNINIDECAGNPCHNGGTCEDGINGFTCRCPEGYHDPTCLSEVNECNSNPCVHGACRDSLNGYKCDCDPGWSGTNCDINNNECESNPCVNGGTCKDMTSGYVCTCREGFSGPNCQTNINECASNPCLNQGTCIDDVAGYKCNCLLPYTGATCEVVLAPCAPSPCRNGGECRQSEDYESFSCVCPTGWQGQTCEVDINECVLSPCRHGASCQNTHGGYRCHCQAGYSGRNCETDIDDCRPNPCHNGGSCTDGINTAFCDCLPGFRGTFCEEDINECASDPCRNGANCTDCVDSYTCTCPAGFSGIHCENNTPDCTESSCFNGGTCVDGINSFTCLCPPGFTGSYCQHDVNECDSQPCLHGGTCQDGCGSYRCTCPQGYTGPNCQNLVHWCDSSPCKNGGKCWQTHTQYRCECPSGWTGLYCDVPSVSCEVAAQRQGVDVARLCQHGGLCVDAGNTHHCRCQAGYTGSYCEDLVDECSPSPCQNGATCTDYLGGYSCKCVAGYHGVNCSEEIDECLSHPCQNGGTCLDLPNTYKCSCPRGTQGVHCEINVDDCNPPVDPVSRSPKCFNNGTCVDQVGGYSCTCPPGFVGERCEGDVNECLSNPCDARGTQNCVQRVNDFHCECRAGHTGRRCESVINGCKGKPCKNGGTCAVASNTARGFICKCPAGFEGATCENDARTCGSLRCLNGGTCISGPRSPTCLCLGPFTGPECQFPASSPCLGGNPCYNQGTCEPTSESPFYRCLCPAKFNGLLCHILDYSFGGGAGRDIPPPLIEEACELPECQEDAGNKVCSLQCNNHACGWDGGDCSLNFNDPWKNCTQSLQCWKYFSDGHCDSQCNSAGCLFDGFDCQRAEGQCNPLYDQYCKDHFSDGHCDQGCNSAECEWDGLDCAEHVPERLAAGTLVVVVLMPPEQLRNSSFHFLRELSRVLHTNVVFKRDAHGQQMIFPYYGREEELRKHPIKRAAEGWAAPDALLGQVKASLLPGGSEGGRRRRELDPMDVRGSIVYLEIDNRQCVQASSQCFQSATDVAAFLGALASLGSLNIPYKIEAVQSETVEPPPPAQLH", "assay": "fluorescence microscopy of JFX650-labelled probody on CHO-K1 cells expressing Notch1-Gal4", "excerpt": "FIGS. 30A and 30B present data showing anti-NRR1-based probodies can bind Notch1 receptors following deletion of the S1 loop (ΔS1) containing the NRR's furin cleavage site. The probodies used represent the anti-NRR1 scFv fused to with a soluble mutant NRR (V1667D) from Notch1, linked together via a TEV protease substrate sequence. The probodies were also fused with a HaloTag domain, which remains attached to the anti-NRR scFv following TEV cleavage. CHO-K1 cells expressing a Notch1-Gal4 chimeric receptor were treated with intact (uncleaved) and TEV protease-cleaved versions of the indicated probodies. The HaloTag domains were conjugated with a JFX650 dye to permit visualization of their binding to cell surface Notch1-Ga4 receptors. (FIG. 30A) Fluorescently labeled probody containing the S1 cleavage loop (Probody^V1667D-JF650) binds Notch1-Gal4 only in its TEV protease-cleaved state. (FIG. 30B) Fluorescently labeled probody containing the S1 cleavage loop deletion (Probody^V1667D(ΔS1)-JF650) similarly binds Notch1-Gal4 in a manner that is dependent on TEV protease cleavage. Insets represent emissions from a constitutively expressed H2B-mTurq2 expressed by the analyzed cells."}, "[6]": {"target": "T6, human Notch1-derived receptor overexpressed on CHO-K1 cells (human, UniProt P46531 19-1762, limits assumed)", "T6 construct": "Cells also express H2B-mTurq; also called Notch1 receptors", "T6 sequence (P46531 19-1762 limits assumed)": "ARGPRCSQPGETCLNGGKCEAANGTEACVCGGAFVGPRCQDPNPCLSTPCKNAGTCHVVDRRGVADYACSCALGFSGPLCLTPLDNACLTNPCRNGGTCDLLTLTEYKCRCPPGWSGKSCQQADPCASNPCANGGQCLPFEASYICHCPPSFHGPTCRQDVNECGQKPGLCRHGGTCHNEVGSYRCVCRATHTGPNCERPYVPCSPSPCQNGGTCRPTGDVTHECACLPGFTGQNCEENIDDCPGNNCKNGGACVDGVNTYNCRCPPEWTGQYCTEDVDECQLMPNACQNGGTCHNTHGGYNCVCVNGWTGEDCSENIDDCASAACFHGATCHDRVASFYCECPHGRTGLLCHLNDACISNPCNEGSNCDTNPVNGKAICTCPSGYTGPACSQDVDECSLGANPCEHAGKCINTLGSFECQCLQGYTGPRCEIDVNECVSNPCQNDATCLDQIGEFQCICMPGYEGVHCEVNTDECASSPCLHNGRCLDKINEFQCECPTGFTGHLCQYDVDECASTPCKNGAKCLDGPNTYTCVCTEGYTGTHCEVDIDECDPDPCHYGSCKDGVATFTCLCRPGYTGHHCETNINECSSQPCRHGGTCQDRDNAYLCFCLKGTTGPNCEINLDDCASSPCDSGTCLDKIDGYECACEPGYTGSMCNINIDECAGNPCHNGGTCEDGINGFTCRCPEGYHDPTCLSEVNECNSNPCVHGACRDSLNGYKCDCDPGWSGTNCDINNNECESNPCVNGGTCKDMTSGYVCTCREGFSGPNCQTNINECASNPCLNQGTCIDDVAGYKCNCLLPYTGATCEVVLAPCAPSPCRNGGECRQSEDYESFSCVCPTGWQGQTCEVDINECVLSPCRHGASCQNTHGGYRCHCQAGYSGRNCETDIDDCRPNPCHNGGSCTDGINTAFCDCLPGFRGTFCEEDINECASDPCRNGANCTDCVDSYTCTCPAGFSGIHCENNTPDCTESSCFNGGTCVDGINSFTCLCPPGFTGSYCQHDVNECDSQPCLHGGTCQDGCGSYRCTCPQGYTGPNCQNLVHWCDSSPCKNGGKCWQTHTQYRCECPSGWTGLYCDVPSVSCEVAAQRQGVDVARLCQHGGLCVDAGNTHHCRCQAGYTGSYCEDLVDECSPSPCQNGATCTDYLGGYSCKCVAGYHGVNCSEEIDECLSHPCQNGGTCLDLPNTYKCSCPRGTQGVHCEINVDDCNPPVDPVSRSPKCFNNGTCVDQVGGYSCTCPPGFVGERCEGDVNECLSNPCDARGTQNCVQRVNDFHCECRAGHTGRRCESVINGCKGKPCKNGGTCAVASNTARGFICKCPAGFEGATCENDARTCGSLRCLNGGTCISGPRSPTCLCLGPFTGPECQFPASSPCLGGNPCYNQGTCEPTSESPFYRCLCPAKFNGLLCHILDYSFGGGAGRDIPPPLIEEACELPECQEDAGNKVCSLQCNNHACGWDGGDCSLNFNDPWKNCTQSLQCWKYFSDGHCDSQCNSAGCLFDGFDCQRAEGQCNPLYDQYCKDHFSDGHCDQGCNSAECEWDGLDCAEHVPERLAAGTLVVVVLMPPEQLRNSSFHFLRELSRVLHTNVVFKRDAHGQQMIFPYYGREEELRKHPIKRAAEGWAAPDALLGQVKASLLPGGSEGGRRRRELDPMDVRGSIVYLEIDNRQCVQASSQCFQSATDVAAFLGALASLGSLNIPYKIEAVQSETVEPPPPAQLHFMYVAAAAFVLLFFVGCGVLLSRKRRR", "assay": "fluorescence microscopy of JFX650-labelled probody on CHO-K1 cells overexpressing a human Notch1-derived receptor", "procedure": "FIG. 37 present data showing Probody with a mask based on the wild-type Notch1-NRR binds Notch1 Receptors in a Cleavage-Dependent Manner. A probody containing the anti-NRR1 scFv was fused to a TEV protease cleavable linker and the wild-type Notch1 NRR. The probodies also contained a HaloTag for labeling with a JFX650 dye. Binding of the probody to Notch1 receptors was tested using uncleaved and TEV protease-cleaved probody. The evaluated cells were based on CHO-K1 celle overexpressing a human Notch1-derived receptor; cells also expressed H2B-mTurq as a fluorescent marker (inset)."}}, "note": "Changes are numbered by the printed parent chain. Numbers in names are those of the source.", "data": [{"binder": "B1", "values": [{"measurement": "binding result", "setting": "[1]", "value": "binds"}, {"measurement": "binding result", "setting": "[2]", "value": "binds"}, {"measurement": "binding result", "setting": "[3]", "value": "binds"}]}, {"binder": "B2", "values": [{"measurement": "binding result", "setting": "[4]", "value": "no binding"}, {"measurement": "binding result", "setting": "[5]", "value": "no binding"}]}, {"binder": "B3", "values": [{"measurement": "binding result", "setting": "[6]", "value": "no binding"}]}, {"binder": "B4", "values": [{"measurement": "binding result", "setting": "[5]", "value": "no binding"}]}]}
